Results from patent US20210380678A1 (SURROZEN OPERATING, published 2021).

T1: human ASGR1 extracellular domain (hASGR1 ECD) (human, UniProt P07306 62-291, biotinylated (His-Avi tag))
T1 construct: His-Avi tag at the N-terminus, biotinylated for BLI; also called human ASGR1 ECD
T1 sequence: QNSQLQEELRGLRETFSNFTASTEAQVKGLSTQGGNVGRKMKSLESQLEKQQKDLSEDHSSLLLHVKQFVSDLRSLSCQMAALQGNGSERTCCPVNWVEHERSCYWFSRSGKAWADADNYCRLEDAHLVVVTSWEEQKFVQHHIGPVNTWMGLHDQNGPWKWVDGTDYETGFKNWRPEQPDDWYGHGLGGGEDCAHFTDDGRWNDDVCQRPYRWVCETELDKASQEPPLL

T2: mouse ASGR1 extracellular domain (mASGR1 ECD) (mouse, biotinylated (His-Avi tag))
T2 construct: His-Avi tag at the C-terminus, biotinylated; also called murine ASGR1; mouse ASGR1 (Q61-N284)
T2 chain: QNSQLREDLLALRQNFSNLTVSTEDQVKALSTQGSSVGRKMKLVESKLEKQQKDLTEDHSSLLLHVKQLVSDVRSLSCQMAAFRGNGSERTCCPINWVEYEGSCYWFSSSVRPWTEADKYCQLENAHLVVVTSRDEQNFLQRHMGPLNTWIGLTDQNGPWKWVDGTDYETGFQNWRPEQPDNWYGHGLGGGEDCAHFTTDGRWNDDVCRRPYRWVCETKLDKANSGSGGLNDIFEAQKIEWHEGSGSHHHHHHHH

T3: human ASGR2 extracellular domain (hASGR2 ECD) (human, UniProt P07307 86-311, biotinylated (His/Avi tag))
T3 construct: Cloned with a His/Avi tag
T3 sequence: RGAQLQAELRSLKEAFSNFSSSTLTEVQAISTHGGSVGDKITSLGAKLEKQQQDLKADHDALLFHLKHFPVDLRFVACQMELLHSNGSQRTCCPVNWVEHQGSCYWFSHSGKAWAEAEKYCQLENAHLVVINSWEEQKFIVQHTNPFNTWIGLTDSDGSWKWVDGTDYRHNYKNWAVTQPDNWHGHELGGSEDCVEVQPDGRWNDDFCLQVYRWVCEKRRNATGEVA


Columns and labels:
[1] = biological target: T1, human ASGR1 extracellular domain …; experiment: BLI, Fab on hASGR1
[2] = biological target: T1, human ASGR1 extracellular domain …; experiment: BLI (Octet), Fab on biotinylated ASGR1 ECD, curve model fitting; Kd only in FIG. 9A
Experimental: (§1) Affinity measurement: Binding kinetics of the RSPO-derived proteins to LGRS, RNF43, or ZNRF3, and binding of the anti-ASGR Fabs to human and/or mouse ASGR1 were determined by bio-layer interferometry (BLI) using Octet Red 96 (PALL ForteBio, Fremont, CA) instruments at 30° C., 1000 rpm with either streptavidin (SA) or anti-hIgG Fc capture (AHC) biosensors. […] Following capture of ECDs of RNF43, ZNRF3 or LGRS, the biosensors were dipped into wells containing the relevant test molecules at 7 different concentrations in running buffer plus a well with only running buffer as a reference channel. KD was determined by steady-state analysis based on the average responses between 140 to 145 seconds of association phase, for binding to LGRS, RNF43, and ZNRF3. For the binding to ASGR, KD was determined by curve model fitting using the Octet® Red data analysis software (Fortebio)

[3] = biological target: T2, mouse ASGR1 extracellular domain …; experiment: as above
Experimental: as §1

[4] = biological target: T3, human ASGR2 extracellular domain …; experiment: BLI, Fab on hASGR2

binding result [1] | binding result [4] | Binder | further results
binds |  | LP1-8M24 Fab (Fab, V domains shown, Tested as Fab, from hybridoma development) VH: QVQLQQSGAELARPGASVKLSCKASGYTFTNYGINWVKQRTGQGLEWIGEIFPRSDNTFYNEKFKGKATLTADKSSTTAYMELRSLTSEDSAVYFCARKGRDYGTSHYFDYWGQGTTLTVSS VL: DIQMTQSPASLSVSVGETVTITCRISENIYSNLAWYQQKQGKSPHLLVYAAINLADGVPSRFSGSGSGTQFSLKINSLQSEDFGSYYCQHFWGTPFTFGSGTKLEIK | 
binds |  | LP1-2I13 Fab (Fab, V domains shown, Tested as Fab, from hybridoma development) VH: EVQLVESGGGLVKPGGSRKLSCAASGFTFSDYGMHWVRQAPEKGLEWVAYISSGSSTIYYADTVKGRFTISRDNAKNTLFLQMTSLRSEDTAMYYCSRKGGFGDYEKSYAMDYWGQGTSVTVSS VL: DIQMTQSPASLSASVGETVTITCRASENIYSYLVWYQQKQGKSPQLLVYNAKTLAEGVPSRFSGSGSGTQFSLKINSLQPEDFGSYYCQHHYGTWTFGGGIKLEIK | 
 |  | anti-ASGR1 Fab (Fab, V domains shown, Made with a (His)6 tag at the C-terminus of the human IgG1 CH1 domain after a 5-mer linker (GSGSG); also called αASGR1 antibody (e.g., RO-01) expressed as a Fab) VH: not shown VL: DIELTQDPAVSVALGQTVRITCQGDSLRSYYASWYQQKPGQAPVLVIYGKNNRPSGIPDRFSGSSSGNTASLTITGAQAEDEADYYCNSLERIGYLSYVFGGGTKLTVLG | binding result [2]: binds; binding result [3]: binds
 | binds | Abv-3D11 Fab (Fab, V domains shown, Tested as Fab, from hybridoma development) VH: EVQLVESGGGLVQPKGSLKLSCAASGFSFNTYAMNWVRQAPGKGLEWVARIRSKSNNYATYYADSVKDRFTISRDDSESMLYLQMNNLKTEDTAMYYCVRPRYDYWYFDVWGTGTTVTVSS VL: not shown | 
 | binds | Abv-10B8 Fab (Fab, V domains shown, Tested as Fab, from hybridoma development) VH: DVKLVESGEGLVKPGGSLKLSCAASGFTFSSYAMSWVRQTPEKRLEWVAYISSGGDYIYYVDTVKGRFTISRDNARNTLYLQMSSLKSEDTAVYYCTREGTGGMDYWGQGTSVTVSS VL: not shown | 
